Results on one molecule are retold here after publication PMC10733448, “An aptamer and Au/Si CCA based SERS sensor for ultra-sensitive detection of Vimentin during EMT in gastric cancer”.

This data set has as its target Vimentin (UniProt P08670 2-466). Briefly: SERS strand-displacement sensor (signal decrease on Vimentin addition); competes with hybridized complementary strand S3 (5-FAM); binding buffer, salt, pH and temperature not given in the material; aptamer on Au/Si CCA, complementary strand on AuNCs, 6-MCH blocking. The following applies: label: none on the aptamer; reporter 5-FAM is on the complementary strand S3; before protein addition hybridized over its 3' 18 nt to SH-S3-5-FAM on Au nanocubes.

Chain of Vimentin (P08670 2-466): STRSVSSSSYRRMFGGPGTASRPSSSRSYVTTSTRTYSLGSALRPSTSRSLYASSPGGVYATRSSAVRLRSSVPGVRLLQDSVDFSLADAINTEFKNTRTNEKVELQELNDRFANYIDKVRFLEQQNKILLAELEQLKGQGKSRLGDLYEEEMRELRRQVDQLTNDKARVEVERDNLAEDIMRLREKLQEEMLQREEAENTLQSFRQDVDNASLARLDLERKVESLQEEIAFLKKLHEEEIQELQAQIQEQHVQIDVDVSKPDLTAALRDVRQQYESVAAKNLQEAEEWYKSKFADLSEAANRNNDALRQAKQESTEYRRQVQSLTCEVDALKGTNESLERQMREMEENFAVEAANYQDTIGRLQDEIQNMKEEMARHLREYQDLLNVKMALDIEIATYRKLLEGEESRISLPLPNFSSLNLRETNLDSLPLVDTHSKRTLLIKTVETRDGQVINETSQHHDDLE

B1: Vimentin aptamer (ssDNA)
DNA: TAGACCCAGCTGGTCCGGAAAATAAGATGTCACGGATCCTC
modifications: thiol (SH) printed at 5' end
For B1, the binding result is reported as “binds”.
